This is an account of results in PMC11192315 (PLOS Pathogens, 2024).

B1: JM-1A Fab (Fab, V domains shown)
VH: QVQLQQSGPGLVKPSGTLSLTCAVSGASISSGDWWSWVRQSPGRGLEWIGGIFHSGTTNYSPSLKSRVTMSVDQPKNQFSLHLTSVTAADTAVYYCARMRGIFDYWGQGTLVTVSS
VL: DIQLTQSPSSLSVSVGDRVTITCRASQAISNSLAWYQQKPGKAPKLLLYAASTLESGVPSRFSGSGSGTDFTLTISSLQPEDFATYYCQHYYSTPFFGGGTKVEIK
B2: JE-5C Fab (Fab, V domains shown)
VH: EVQLLESGGGLVQPGGSLRLSCAASGVTVTSNYMSWVRQAPGKGLEWVSVIYSGGSTYYADSVKGRFTISRHNSKNTLYLQMNSLRAEDTAVYYCARDLREAGGMDVWGQGTTVTVSS
VL: DIVMTQSPSSLSASVGDRVTITCQASQDINNYLNWYQQKPGKAPKLLIYDASNLETGVPSRFSGSGSGTDFTFTISSLQPEDIATYYCQQFDNLPWTFGQGTKVEIR
B3: JH-8B (human IgG mAb) (antibody, V domains shown)
VH: EVQLVESGGGLIQPGGSLRLSCAASGVTVSSNYMSWVRQAPGKGLEWISLIYSGGSTYYADSVKGRFTISRDNSKNTLYLQMNSLRAEDTAVYYCARELDIVGATDIWGQGTMVTVSS
VL: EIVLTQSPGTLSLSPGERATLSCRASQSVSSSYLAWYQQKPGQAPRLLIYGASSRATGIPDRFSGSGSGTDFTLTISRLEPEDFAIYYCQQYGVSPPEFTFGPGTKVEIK
B4: JM-1A (human IgG mAb) (antibody, V domains shown)
VH: B1 VH
VL: B1 VL
B5: C121 (Class 2 human mAb) (antibody, V domains shown)
VH: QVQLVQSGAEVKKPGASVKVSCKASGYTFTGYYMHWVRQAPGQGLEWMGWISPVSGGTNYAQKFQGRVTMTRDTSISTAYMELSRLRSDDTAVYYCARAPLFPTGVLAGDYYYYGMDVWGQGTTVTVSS
VL: QSALTQPASVSGSPGQSITISCTGTSSDVGSYNLVSWYQQHPGKAPKLMIYEGSKRPSGVSNRFSGSKSGNTASLTISGLQAEDEADYYCCSYAGSSTLVFGGGTKLTVL
B6: FI-3A (Class 1 human mAb) (antibody, V domains shown)
VH: EVQLLESGGGLIQPGGSLRLSCAASGFTVSSNYMSWVRQAPGKGLEWVSVIYSGGSTYYADSVKGRFTISRDNSKNTLYLQMNSLRAEDTAVYYCARDHVRPGMNIWGQGTMVTVSS
VL: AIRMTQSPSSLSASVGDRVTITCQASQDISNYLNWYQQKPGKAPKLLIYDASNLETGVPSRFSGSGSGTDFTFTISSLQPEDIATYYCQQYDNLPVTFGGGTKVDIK
B7: JL-8C (human IgG mAb) (antibody, V domains shown)
VH: QVQLVQSGAEVKKPGESLKISCKGSGYSFTSHWIGWVRQKPGKGLEWVGIIHPYDSDTRYSPSFQGLVTFSADKSSSTAYLQWSSLQASDTAIYYCARRTDQYGSHGMDVWGQGTTVTVSS
VL: QSVLTQPPSASGTPGQRVTISCSGGSSNIGGNPVNWYQQLPATAPKLLIYNNNQRPSGVSDRFSGSKSGTSASLAISGLQSVDEADYFCAAWDDSLNGVLFGGGTKLTVL
B8: IY-2A (Class 4 human mAb) (antibody, V domains shown)
VH: QVQLVEWGAGLLKPSETLSLTCAVYGGSFSGYYWSWIRQPPGKGLEWIGLINHSGSTNYNPSLKSRVTISLDTSKNQFSLKLTSVTAADTAVYYCARGLGIFGVVTLSDVWGQGTTVTVSS
VL: NFMLTQPHSVSESPGKTVTISCTGSSGSIASNYVQWYQQRPGSAPTTVIYEDNQRPSGVPDRFSGSIDSSSNSASLTISGLRTEDEADYYCQSYDSGIWVFGGGTKLTVL
B9: FD-11A (Class 3 human mAb) (antibody, V domains shown)
VH: EVQLVESGGGVVQPGRSLRLSCAASGFTFSSYGMHWVRQAPGKGLEWVAVIWYDGSNKYYADSVKGRFTISRDNSKNTLYLQMNSLRAEDTAVYYCAKGPDILTGYYNYYYYGMDVWGQGTMVTVSS
VL: QSVLTQPPSVSGAPGQRVTISCTGSSSNIGAGYDVHWYQQLPGTAPKLLIYGNSNRPSGVPDRFSGSKSGTSASLAITGLQAEDEADYYCQSYDSSLSGFYVVFGGGTKLTVL
B10: JE-5C (human IgG mAb) (antibody, V domains shown)
VH: B2 VH
VL: B2 VL

The target in the first test is RBD domain (333-530) of SARS-CoV-2 WT Spike (SARS-CoV-2, UniProt P0DTC2). Nature of the test: crystal structure. The note with it: both partners purified.
For B1, the binding result was “binds”.
For B2, the binding result was “binds”.

The target in another test is T1, SARS-CoV-2 RBD, wild type (Wuhan-Hu-1) (SARS-CoV-2, UniProt P0DTC2). Nature of the test: cell-based or functional assay.
Conditions: not given
As for B3, the “IC50, neutralisation of pseudotyped lentivirus with WT spike” value is 9 ng/mL.

The target of another test is T1, SARS-CoV-2 RBD, wild type (Wuhan-Hu-1). Nature of the test: ELISA. Conditions: both partners purified.
B4: the binding result is recorded as “binds”.
With B5, the binding result was “binds”.
For the molecule B6, the binding result was “binds”.
With B7, the binding result was “binds”.
The same measure, in the same setting: with B8 the entry was “binds”; with B9, “binds”; with B10, “binds”.
